The values below are quoted from earlier work in publication PMC5487772.

Where two headings read alike, the source gives them in different places.

The target of data set [1] is phosphacan (UniProt Q62656).
In data set [2] the target is phosphacan (UniProt Q62656). This is another data set of the same source.

Sequence of UniProt Q62656 (Q62656 25-1637): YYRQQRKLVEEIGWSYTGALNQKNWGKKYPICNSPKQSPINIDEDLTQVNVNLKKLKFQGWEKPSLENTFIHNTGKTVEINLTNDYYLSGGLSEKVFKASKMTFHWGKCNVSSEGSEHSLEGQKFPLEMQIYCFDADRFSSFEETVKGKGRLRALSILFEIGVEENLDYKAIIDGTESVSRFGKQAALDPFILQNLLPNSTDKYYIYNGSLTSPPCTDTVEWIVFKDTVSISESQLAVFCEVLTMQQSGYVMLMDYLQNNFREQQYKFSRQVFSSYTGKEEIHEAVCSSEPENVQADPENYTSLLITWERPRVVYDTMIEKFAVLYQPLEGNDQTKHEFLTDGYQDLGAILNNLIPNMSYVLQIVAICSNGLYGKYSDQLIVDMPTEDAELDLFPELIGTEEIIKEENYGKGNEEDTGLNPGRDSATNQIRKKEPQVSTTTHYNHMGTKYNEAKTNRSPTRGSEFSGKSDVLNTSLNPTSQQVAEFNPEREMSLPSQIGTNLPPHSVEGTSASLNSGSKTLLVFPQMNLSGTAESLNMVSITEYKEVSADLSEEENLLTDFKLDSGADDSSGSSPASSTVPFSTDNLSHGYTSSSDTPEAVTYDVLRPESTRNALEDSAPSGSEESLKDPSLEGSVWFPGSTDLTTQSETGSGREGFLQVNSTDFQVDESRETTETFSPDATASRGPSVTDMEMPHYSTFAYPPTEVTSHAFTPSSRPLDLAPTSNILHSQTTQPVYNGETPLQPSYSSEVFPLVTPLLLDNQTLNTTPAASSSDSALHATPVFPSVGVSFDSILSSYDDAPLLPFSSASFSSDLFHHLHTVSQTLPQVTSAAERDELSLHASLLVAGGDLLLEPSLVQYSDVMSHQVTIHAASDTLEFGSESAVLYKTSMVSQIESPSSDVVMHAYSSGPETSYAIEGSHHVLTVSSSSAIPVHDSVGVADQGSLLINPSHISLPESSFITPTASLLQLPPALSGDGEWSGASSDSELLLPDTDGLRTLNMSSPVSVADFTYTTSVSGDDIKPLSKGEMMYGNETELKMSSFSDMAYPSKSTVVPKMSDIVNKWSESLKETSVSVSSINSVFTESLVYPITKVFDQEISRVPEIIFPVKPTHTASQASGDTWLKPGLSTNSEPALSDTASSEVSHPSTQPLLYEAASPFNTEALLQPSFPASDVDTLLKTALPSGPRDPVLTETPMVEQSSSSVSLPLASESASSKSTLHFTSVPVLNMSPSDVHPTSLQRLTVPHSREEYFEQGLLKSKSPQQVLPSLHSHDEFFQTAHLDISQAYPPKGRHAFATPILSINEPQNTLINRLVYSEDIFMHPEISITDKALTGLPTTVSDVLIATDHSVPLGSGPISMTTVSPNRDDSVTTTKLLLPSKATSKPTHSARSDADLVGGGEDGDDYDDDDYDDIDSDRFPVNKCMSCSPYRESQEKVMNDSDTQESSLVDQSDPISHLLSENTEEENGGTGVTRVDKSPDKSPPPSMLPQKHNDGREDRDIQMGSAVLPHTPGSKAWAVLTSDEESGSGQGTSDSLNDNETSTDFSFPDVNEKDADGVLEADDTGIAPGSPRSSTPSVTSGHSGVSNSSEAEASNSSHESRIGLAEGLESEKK

Turning to N-CAM (from UniProt P13591), the Kd in data set [1] is 0.5 nM.

On to Ng-CAM (from UniProt Q03696), for which the Kd in data set [2] was 0.5 nM.

What is called Kd is a measure of binding affinity in units of concentration.
